US20250259704A1, “SYSTEMS AND METHODS FOR CELL-FREE ITERATIVE SITE SATURATION MUTAGENESIS AND ITS APPLICATION FOR THE DIRECTED EVOLUTION OF ENZYMES CATALYZING UNNATURAL REACTIONS” (Northwestern University, priority 2022, published 2025)

Experiments:
[1] = Protein melting temperature by circular dichroism; format: physicochemical
Procedure: Protein melting temperature was determined using a Jasco J-810 circular dichroism spectrophotometer with a 10 mm path length cuvette monitored at 222 nm. McbA samples were first buffer exchanged into a 1× phosphate buffered saline solution, pH 7.4, and diluted to 0.2-0.4 mg/mL.

amide synthetase McbA [2] = experiment: High-throughput amidation assay with crude CFPS-expressed McbA variants (hot spot screen, ISM); format: biochemical, Marinactinospora thermotolerans; details: final screening conditions; moclobemide synthesis; 25 mM ATP, acid, amine, 10% v/v DMSO, 37° C. 16 hours
Procedure: Amide products (along with acid substrates and some adenylated acid intermediates) were analyzed using an Agilent G6125B Single Quadrupole LC/MSD system equipped with an electrospray ionization source set to positive ionization mode. The quenched samples were centrifuged for 10 min at 4,500×g to remove precipitated proteins. A separate 384-well plate for sample injection into the HPLC-MS was prepared by diluting 5 μL of the quenched samples with 25 μL of methanol using the Integra VIAFLO. Trace amounts of compounds were detected using MS, while many compounds were present in high enough concentration to quantify by diode array detector (DAD) at 254 nm. Compounds were separated on a Luna C18 Column (Phenomenex 00D-4251-B0) using mobile phases (A) H2O with 0.1% formic acid and (B) Acetonitrile. The general method for chromatographic separation was carried out using the following gradients at a constant flow rate of 0.5 mL/min: 0 min 5% B; 1 min 5% B; 4 min 95% B; 4.5 min 95% B; 5 min 5% B. For the MS, capillary voltage was set at 3 kV, and nitrogen gas was used for nebulizing (35 psig) and drying (12 l/min, 350° C.). The MS was calibrated using Tuning Mix (Agilent G2421-60001) before measurements were taken. […] LC-MS data were collected and analyzed using Agilent OpenLab CDS ChemStation software. The product yield was calculated by dividing the DAD peak area for the amide product by the sums of the peak areas of both the amide and the acid substrate.
All high-throughput assays (hot spot screen, iterative site saturation mutagenesis, substrate scope, ML predictions validation, and ML prediction exploration) were assembled in 384-well plates (Bio-Rad) using an Integra VIAFLO liquid handling robot. […] The amidation assay was initiated by adding 3-μL of crude CFPS reaction containing an expressed McbA variant, with final concentrations of 25 mM ATP, 25 mM acid, 25 mM amine, 10% v/v DMSO, and ˜1 μM of enzyme (determined by ^14C-leucine incorporation using previously described protocols^66). […]

amide synthetase McbA [3] = experiment: Apparent steady-state kinetics, amide bond formation coupled to NADH oxidation; format: biochemical, Marinactinospora thermotolerans; details: kcat/KM for the amine, versus wt-McbA
Procedure: McbA apparent kinetics for the amine pair of moclobemide (4-(2-aminoethyl)morpholine) were determined by enzymatically coupling amide bond formation (and the concomitant release of AMP from the acyl-AMP intermediate by its substitution with the amine) with the oxidation of NADH, as shown in FIGS. 7A-7B. Reactions contained 100 mM MOPS-KOH pH 7.8, 5 mM MgCl2, 2.5 mM phosphoenolpyruvate, 5 mM ATP, 0.3 mM NADH, 50 mM 4-chlorobenzoic acid, 15 U/mL pyruvate kinase and lactate dehydrogenase enzyme mix (Sigma-Aldrich P0294), 25 U/mL myokinase (Sigma-Aldrich 475941), and various concentrations (50-200 μg/mL) of the studied McbA variant. As the acid here (4-chlorobenzoic acid) has poor solubility in water and was dissolved in DMSO, the final reactions contained 10% v/v DMSO (equivalent to our amidation screens). 180-μL reactions were first equilibrated at 30° C. for 3 minutes and then initiated by adding 20-μL of amine. The initial velocity was determined for different concentrations of amine (0.1 mM-50 mM) by measuring NADH absorbance at 340 nm on a Cary 60 UV-Vis (Agilent). Data were collected and analyzed using the Cary WinUV Kinetics Application software (Agilent). Michaelis-Menten graphs were plotted in GraphPad Prism and fit using the default Michaelis-Menten non-linear regression analysis tool.

B1: qm-McbAmoclobemide: quadruple mutant of McbA from ISM campaign for moclobemide, SEQ ID NO: 145 (protein)
chain: MEKKIWSHPQFEKGGSGENLYFQGGYARRVMDGIGEVAVTGAGGSVTGARLRHQVRLLAHALTEAGIPPGRGVACLHANTWRAIALRLAVQAIGCHYVGLRPTAAVTEQARAIAAADSAALVFEPSVEARAADLLERVSVPVVLSLGPTSRGRDILAASVPEGTPLRYREHPEGIASVAFTSGTTGTPKGVAHSSTAMSACVDAAVSMYGRGPWRFLIPSPLSDLGGELAQCTLATGGTVVLLEEFQPDAVLEAIERERATHVFLAPNWLYQLAEHPALPRSDLSSLRRVVYGGAPAVPSRVAAARERMGAVLMQNYGTQEAFFIAALTPDDHARRELLTAVGRPLPHVEVEIRDDSGGTLPRGAVGEVWVRSPMTMSGYWRDPERTAQVLSGGWLRTGDVGTFDEDGHLHLTDRLQDIIIVEAYNVYSLRVEHVLTEHPDVRAAAVVGVPDPDSGEAVCAAVVVADGADPDPEHLRALVRDHLGDLHVPRRVEFVRSIPVTPAGKPDKVKVRTWFTD
[1]
  melting point change versus wt-McbA: did not significantly change
Amide synthetase McbA [2]
  conversion (yield) of moclobemide: 96%
Amide synthetase McbA [3]
  increase in catalytic efficiency from wt-McbA: 42 fold
